In publication PMC9482650, “Quantitative fragmentomics allow affinity mapping of interactomes” (Nature Communications, 2022):

How the values were obtained:
Test in all cases: holdup assay
Parameters in all cases: key: below the threshold = too weak to quantify, mostly under pKd 3.1 to 4
SIPA1L2, Q9P2F8 = target: T1, SIPA1L2, Q9P2F8
T1 sequence (Q9P2F8 945-1036, limits assumed, looked up): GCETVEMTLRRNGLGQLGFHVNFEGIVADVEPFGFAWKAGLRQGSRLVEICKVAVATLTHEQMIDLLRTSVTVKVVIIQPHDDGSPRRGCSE

DLG5_1, Q8TDM6 = target: DLG5_1, Q8TDM6
APBA2_2, Q99767 = target: T2, APBA2_2, Q99767
T2 sequence (Q99767 654-744, limits assumed, looked up): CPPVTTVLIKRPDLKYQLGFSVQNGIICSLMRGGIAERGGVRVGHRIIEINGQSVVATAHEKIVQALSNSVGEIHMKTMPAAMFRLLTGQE

Inadl_6, Q8NI35 = target: Inadl_6, Q8NI35
GRIP2_4, Q9C0E4 = target: GRIP2_4, Q9C0E4
DLG3_1, Q92796 = target: T3, DLG3_1, Q92796
T3 sequence (Q92796 125-227, limits assumed, looked up): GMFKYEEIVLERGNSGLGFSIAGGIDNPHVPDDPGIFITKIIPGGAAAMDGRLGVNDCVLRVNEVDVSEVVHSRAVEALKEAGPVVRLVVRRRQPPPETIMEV

SHANK1, Q9Y566 = target: T4, SHANK1, Q9Y566
T4 sequence (Q9Y566 658-767, limits assumed, looked up): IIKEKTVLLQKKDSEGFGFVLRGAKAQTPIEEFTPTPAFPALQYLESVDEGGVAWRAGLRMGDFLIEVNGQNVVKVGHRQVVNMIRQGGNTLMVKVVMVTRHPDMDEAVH

SCRIB_2, Q14160 = target: SCRIB_2, Q14160
TJP3_3, O95049 = target: T5, TJP3_3, O95049
T5 sequence (O95049 375-456, limits assumed, looked up): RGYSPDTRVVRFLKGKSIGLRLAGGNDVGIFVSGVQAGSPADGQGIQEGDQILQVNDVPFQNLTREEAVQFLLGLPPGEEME

MAGI2_6, Q86UL8 = target: MAGI2_6, Q86UL8
SNTB1, Q13884 = target: T6, SNTB1, Q13884
T6 sequence (Q13884 107-205, limits assumed, looked up): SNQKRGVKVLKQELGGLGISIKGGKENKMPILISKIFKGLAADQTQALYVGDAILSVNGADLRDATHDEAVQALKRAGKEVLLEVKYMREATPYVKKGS

GRIP1_5, Q9Y3R0 = target: T7, GRIP1_5, Q9Y3R0
T7 sequence (Q9Y3R0 568-668, limits assumed, looked up): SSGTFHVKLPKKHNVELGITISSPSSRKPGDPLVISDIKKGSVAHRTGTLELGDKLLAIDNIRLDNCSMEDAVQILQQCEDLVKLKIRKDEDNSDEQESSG

PDZD7_3, Q9H5P4 = target: T8, PDZD7_3, Q9H5P4
T8 sequence (Q9H5P4 857-944, limits assumed, looked up): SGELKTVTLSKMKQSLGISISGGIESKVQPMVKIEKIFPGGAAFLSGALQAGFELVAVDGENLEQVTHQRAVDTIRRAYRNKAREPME

Inadl_4, Q8NI35 = target: Inadl_4, Q8NI35
MAGI2_5, Q86UL8 = target: MAGI2_5, Q86UL8
SNTA1, Q13424 = target: T9, SNTA1, Q13424
T9 sequence (Q13424 82-180, limits assumed, looked up): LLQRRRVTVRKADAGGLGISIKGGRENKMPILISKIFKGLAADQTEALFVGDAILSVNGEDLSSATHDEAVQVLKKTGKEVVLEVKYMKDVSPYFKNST

PDLIM1, O00151 = target: PDLIM1, O00151
MAST1, Q9Y2H9 = target: MAST1, Q9Y2H9
HTRA1, Q92743 = target: HTRA1, Q92743
APBA3_1, O96018 = target: T10, APBA3_1, O96018
T10 sequence (O96018 389-490, limits assumed, looked up): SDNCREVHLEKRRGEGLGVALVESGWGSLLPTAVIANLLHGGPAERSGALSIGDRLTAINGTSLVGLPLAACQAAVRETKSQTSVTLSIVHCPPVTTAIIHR

SYNJ2BP, P57105 = target: T11, SYNJ2BP, P57105
T11 sequence (P57105 8-110, limits assumed, looked up): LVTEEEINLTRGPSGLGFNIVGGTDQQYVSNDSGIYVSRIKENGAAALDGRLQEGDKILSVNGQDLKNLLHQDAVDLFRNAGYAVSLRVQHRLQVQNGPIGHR

GRID2IP_2, A4D2P6 = target: GRID2IP_2, A4D2P6
CARD11, Q9BXL7 = target: T12, CARD11, Q9BXL7
T12 sequence (Q9BXL7 662-765, limits assumed, looked up): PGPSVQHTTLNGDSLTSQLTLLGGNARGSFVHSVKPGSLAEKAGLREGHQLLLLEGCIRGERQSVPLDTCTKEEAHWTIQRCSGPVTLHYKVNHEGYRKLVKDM

DVL3, Q92997 = target: T13, DVL3, Q92997
T13 sequence (Q92997 244-331, limits assumed, looked up): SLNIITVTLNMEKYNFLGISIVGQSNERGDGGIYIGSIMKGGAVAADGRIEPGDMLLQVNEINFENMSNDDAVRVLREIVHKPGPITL

DLG1_1, Q12959 = target: DLG1_1, Q12959
[1] = modified: phospho on T at position -2 from the C-terminal residue
[2] = plain residues with an end cap or a label only (N-terminal biotin on a linker: ado-ado)

Inadl_4, Q8NI35, sequence (Q8NI35 547-651): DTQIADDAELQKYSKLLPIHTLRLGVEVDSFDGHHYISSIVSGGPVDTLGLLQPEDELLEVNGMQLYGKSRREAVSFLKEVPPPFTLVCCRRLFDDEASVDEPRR
MAST1, Q9Y2H9, sequence (Q9Y2H9 962-1065): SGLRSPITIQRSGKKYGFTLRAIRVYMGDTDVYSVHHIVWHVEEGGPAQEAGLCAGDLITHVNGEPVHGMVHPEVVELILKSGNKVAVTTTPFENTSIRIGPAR
GRID2IP_2, A4D2P6, sequence (A4D2P6 272-370): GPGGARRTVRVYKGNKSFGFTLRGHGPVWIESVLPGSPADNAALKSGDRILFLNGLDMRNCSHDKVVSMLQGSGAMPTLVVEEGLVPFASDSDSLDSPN
PDLIM1, O00151, sequence (O00151 1-87): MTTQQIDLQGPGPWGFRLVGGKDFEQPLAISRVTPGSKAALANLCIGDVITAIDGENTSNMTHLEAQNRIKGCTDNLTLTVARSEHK
SCRIB_2, Q14160, sequence (Q14160 857-960): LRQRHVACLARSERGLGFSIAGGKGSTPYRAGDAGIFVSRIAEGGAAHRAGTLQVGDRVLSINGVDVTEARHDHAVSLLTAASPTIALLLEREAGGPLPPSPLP
MAGI2_5, Q86UL8, sequence (Q86UL8 915-1017): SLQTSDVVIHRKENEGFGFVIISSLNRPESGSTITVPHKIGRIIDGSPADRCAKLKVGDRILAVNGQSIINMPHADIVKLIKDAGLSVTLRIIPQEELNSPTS
MAGI2_6, Q86UL8, sequence (Q86UL8 1141-1229): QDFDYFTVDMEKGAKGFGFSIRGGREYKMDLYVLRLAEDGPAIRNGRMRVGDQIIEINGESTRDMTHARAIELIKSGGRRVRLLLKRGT
Inadl_6, Q8NI35, sequence (Q8NI35 1058-1167): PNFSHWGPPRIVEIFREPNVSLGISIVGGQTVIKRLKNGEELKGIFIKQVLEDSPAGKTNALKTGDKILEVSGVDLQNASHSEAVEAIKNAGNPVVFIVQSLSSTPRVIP
HTRA1, Q92743, sequence (Q92743 360-477): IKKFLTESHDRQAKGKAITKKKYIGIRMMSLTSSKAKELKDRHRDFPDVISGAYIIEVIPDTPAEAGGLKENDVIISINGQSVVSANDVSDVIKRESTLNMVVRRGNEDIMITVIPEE
GRIP2_4, Q9C0E4, sequence (Q9C0E4 446-548): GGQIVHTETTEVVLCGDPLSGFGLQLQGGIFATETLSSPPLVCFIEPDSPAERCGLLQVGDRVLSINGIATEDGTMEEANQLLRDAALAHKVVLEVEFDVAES
DLG5_1, Q8TDM6, sequence (Q8TDM6 617-713): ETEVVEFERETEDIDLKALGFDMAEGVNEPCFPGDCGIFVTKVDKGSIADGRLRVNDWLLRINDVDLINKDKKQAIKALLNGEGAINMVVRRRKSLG

For SKPTRRETEV [HPV35-E6_-2P, P27228], the pKd (SIPA1L2, Q9P2F8; [1]) was “below the threshold”, the pKd (DLG5_1, Q8TDM6; [1]) was “below the threshold” and the pKd (APBA2_2, Q99767; [1]) was “below the threshold”. For the same binder, the pKd (Inadl_6, Q8NI35; [1]) was “below the threshold”, the pKd (GRIP2_4, Q9C0E4; [1]) was “below the threshold” and the pKd (DLG3_1, Q92796; [1]) was “below the threshold”. For the same binder, the pKd (SHANK1, Q9Y566; [1]) was “below the threshold”, the pKd (SCRIB_2, Q14160; [1]) was “below the threshold” and the pKd (TJP3_3, O95049; [1]) was “below the threshold”. The pKd (MAGI2_6, Q86UL8; [1]) was “below the threshold”, the pKd (SNTB1, Q13884; [1]) was “below the threshold” and the pKd (GRIP1_5, Q9Y3R0; [1]) was “below the threshold”. The pKd (PDZD7_3, Q9H5P4; [1]) was 3.61, the pKd (Inadl_4, Q8NI35; [1]) was “below the threshold” and the pKd (MAGI2_5, Q86UL8; [1]) was “below the threshold”. For the same binder, the pKd (SNTA1, Q13424; [1]) was “below the threshold”, the pKd (PDLIM1, O00151; [1]) was “below the threshold” and the pKd (MAST1, Q9Y2H9; [1]) was “below the threshold”. The pKd (HTRA1, Q92743; [1]) was “below the threshold”, the pKd (APBA3_1, O96018; [1]) was “below the threshold” and the pKd (SYNJ2BP, P57105; [1]) was “below the threshold”. For the same binder, the pKd (GRID2IP_2, A4D2P6; [1]) was “below the threshold”, the pKd (CARD11, Q9BXL7; [1]) was “below the threshold” and the pKd (DVL3, Q92997; [1]) was “below the threshold”. The pKd (DLG1_1, Q12959; [1]) was “below the threshold”.

With RRRESYSTTV [EVI5, O60447] the pKd (SIPA1L2, Q9P2F8; [2]) was 3.47, the pKd (DLG5_1, Q8TDM6; [2]) was “below the threshold” and the pKd (APBA2_2, Q99767; [2]) was “below the threshold”. For the same binder, the pKd (Inadl_6, Q8NI35; [2]) was “below the threshold”, the pKd (GRIP2_4, Q9C0E4; [2]) was “below the threshold” and the pKd (DLG3_1, Q92796; [2]) was 5.06. For the same binder, the pKd (SHANK1, Q9Y566; [2]) was 4.36, the pKd (SCRIB_2, Q14160; [2]) was “below the threshold” and the pKd (TJP3_3, O95049; [2]) was “below the threshold”. For the same binder, the pKd (MAGI2_6, Q86UL8; [2]) was 3.77, the pKd (SNTB1, Q13884; [2]) was 4.65 and the pKd (GRIP1_5, Q9Y3R0; [2]) was “below the threshold”. For the same binder, the pKd (PDZD7_3, Q9H5P4; [2]) was 4.61, the pKd (Inadl_4, Q8NI35; [2]) was “below the threshold” and the pKd (MAGI2_5, Q86UL8; [2]) was 4.54. For the same binder, the pKd (SNTA1, Q13424; [2]) was 4.41, the pKd (PDLIM1, O00151; [2]) was “below the threshold” and the pKd (MAST1, Q9Y2H9; [2]) was 4.82. The pKd (HTRA1, Q92743; [2]) was 4.45, the pKd (APBA3_1, O96018; [2]) was “below the threshold” and the pKd (SYNJ2BP, P57105; [2]) was 4.89. For the same binder, the pKd (GRID2IP_2, A4D2P6; [2]) was 4.34, the pKd (CARD11, Q9BXL7; [2]) was “below the threshold” and the pKd (DVL3, Q92997; [2]) was “below the threshold”. The pKd (DLG1_1, Q12959; [2]) was 5.66.

With LRSPRTPSEV [OR10G3, Q8NGC4] the pKd (SIPA1L2, Q9P2F8; [2]) was “below the threshold”, the pKd (DLG5_1, Q8TDM6; [2]) was “below the threshold” and the pKd (APBA2_2, Q99767; [2]) was “below the threshold”. The pKd (Inadl_6, Q8NI35; [2]) was “below the threshold”, the pKd (GRIP2_4, Q9C0E4; [2]) was “below the threshold” and the pKd (DLG3_1, Q92796; [2]) was “below the threshold”. The pKd (SHANK1, Q9Y566; [2]) was “below the threshold”, the pKd (SCRIB_2, Q14160; [2]) was 3.6 and the pKd (TJP3_3, O95049; [2]) was “below the threshold”. For the same binder, the pKd (MAGI2_6, Q86UL8; [2]) was “below the threshold”, the pKd (SNTB1, Q13884; [2]) was “below the threshold” and the pKd (GRIP1_5, Q9Y3R0; [2]) was “below the threshold”. The pKd (PDZD7_3, Q9H5P4; [2]) was “below the threshold”, the pKd (Inadl_4, Q8NI35; [2]) was “below the threshold” and the pKd (MAGI2_5, Q86UL8; [2]) was “below the threshold”. For the same binder, the pKd (SNTA1, Q13424; [2]) was 3.52, the pKd (PDLIM1, O00151; [2]) was “below the threshold” and the pKd (MAST1, Q9Y2H9; [2]) was “below the threshold”. For the same binder, the pKd (HTRA1, Q92743; [2]) was 3.58, the pKd (APBA3_1, O96018; [2]) was “below the threshold” and the pKd (SYNJ2BP, P57105; [2]) was 4.61. For the same binder, the pKd (GRID2IP_2, A4D2P6; [2]) was “below the threshold”, the pKd (CARD11, Q9BXL7; [2]) was “below the threshold” and the pKd (DVL3, Q92997; [2]) was “below the threshold”. The pKd (DLG1_1, Q12959; [2]) was “below the threshold”.
